# B1: GST-NP ncNLS, wild-type (peptide)
# chain: ASQGTKRSYEQMET
# notes: also called GST-tagged ncNLS; not shown: GST, N-terminal, kept
# Target: His/S-ΔIBB importin-α1 (mouse, residues 70–529), wild-type (mouse, UniProt P52293 70-529)
# Test: ELISA
# Conditions: both partners purified
binder,measurement,value
B1,Kd,1700 nM

# Reference: article PMC4601014 (Scientific Reports, 2015)
